In patent US20060257396A1 (published 2006):
Residue numbers refer to the chain shown, from its start. Values belong to the binder of their own block, whether it stands above or below them.

Columns and labels:
[1] = biological target: T1, aggregated synthetic Aβ1-42 (UniProt P05067 672-713); assay: ELISA on aggregated synthetic Aβ1-42
T1 construct: range 672-713; Aggregated form coated for ELISA; also called aggregated Aβ1-42; aggregate Aβ 1-42

[2] = biological target: T1, aggregated synthetic Aβ1-42; assay: ELISA on aggregated synthetic Aβ1-42 (given as ED50)
Monomer = biological target: T2, Monomer (preparation treated with peroxynitrite; modified residues not stated ; The preparation was treated with peroxynitrite. The modified residues are not stated and cannot be shown in the letters.); assay: immunoprecipitation of the peroxynitrite treated oligomeric Aβ1-42 preparation with the antibody, SDS-PAGE (16% Tricine), Western blot imaged with 3D6
T2 construct: Monomer fraction of the same preparation as m4; also called Aβ1-42 monomer; monomeric Aβ

[3] = biological target: T3, Aβ peptide (β-amyloid peptide; form and length not stated for the assay) (UniProt P05067 672-713); assay: BIAcore
T3 construct: also called beta amyloid peptide

[4] = biological target: T3, Aβ peptide (β-amyloid peptide; form and …); assay: average of competitive ELISA and BIAcore
[5] = biological target: T3, Aβ peptide (β-amyloid peptide; form and …); assay: ELISA competitive binding assay with biotinylated 3D6
[6] = biological target: T3, Aβ peptide (β-amyloid peptide; form and …); assay: BIAcore, Langmuir model (global analysis)
[7] = biological target: T3, Aβ peptide (β-amyloid peptide; form and …); assay: Biacore; humanized h12A11v1
[8] = biological target: T1, aggregated synthetic Aβ1-42; assay: competitive Aβ ELISA with biotin conjugated mouse 12A11 Cγ2a

B4: humanized 3D6 version 1 (antibody, V domains shown)
VH: EVQLLESGGGLVQPGGSLRLSCAASGFTFSNYGMSWVRQAPGKGLEWVASIRSGGGRTYYSDNVKGRFTISRDNAKNSLYLQMNSLRAEDTALYYCVRYDHYSGSSDYWGQGTLVTVSS
VL: YVVMTQSPLSLPVTPGEPASISCKSSQSLLDSDGKTYLNWLLQKPGQSPQRLIYLVSKLDSGVPDRFSGSGSGTDFTLKISRVEAEDVGVYYCWQGTHFPRTFGQGTKVEIK
notes: also called h3D6v1; h3D6 v1
- Kd [3]: 2.06 nM
- fold loss of binding affinity against murine 3D6 [4]: ~3 fold
- fold less binding affinity than 3D6 [5]: ~6 fold

B5: humanized 3D6 version 2 (antibody, V domains shown)
VH: B4 VH with A75S, S78T, L93V
VL: B4 VL with Y1D
notes: also called h3D6v2; h3D6 v2
- Kd [3]: 2.24 nM
- fold loss of binding affinity against murine 3D6 [4]: ~3 fold
- fold less binding affinity than 3D6 [5]: ~6 fold

B6: humanized 12A11 version 2 (antibody, V domains shown)
VH: QVQLVESGGGVVQPGRSLRLSCAFSGFTLSTSGMSVGWIRQAPGKGLEWVAHIWWDDDKYYNPSLKSRFTISKDTSKNTLYLQMNSLRAEDTAVYYCARRTTTADYFAYWGQGTTVTVSS
VL: DVVMTQSPLSLPVTPGEPASISCRSSQSIVHSNGNTYLEWYLQKPGQSPQLLIYKVSNRFSGVPDRFSGSGSGTDFTLKISRVEAEDVGVYYCFQSSHVPLTFGQGTKLEIK
notes: V region subcloned into heavy chain expression vector pCMV-Cgamma1 (human γ1); also called h12A11v2
- Ka [6]: 6.86e+07 M⁻¹
- Kd [6]: 14.6 nM
- koff [6]: 0.00412 s⁻¹
- kon [6]: 283000 M⁻¹ s⁻¹

B7: humanized 12A11 version 1 (antibody, V domains shown)
VH: B6 VH with T28S, V50L, F69L, L80V
VL: B6 VL
notes: Variable regions only tied to the tested antibody; also called h12A11v1; humanized 12A11 v1
- Kd [7]: 23 nM
- Ka [6]: 3.48e+08 M⁻¹
- Kd [6]: 2.87 nM
- koff [6]: 0.00117 s⁻¹
- kon [6]: 408000 M⁻¹ s⁻¹
- IC50 ratio to murine and chimeric 12A11 [8]: ≤ 2 fold

B8: humanized 12A11 version 3 (antibody, V domains shown)
VH: B6 VH with K73R, T75N
VL: B6 VL
notes: Variable regions only; made like version 2; also called h12A11v3; humanized 12A11 v3
- Ka [6]: 6.53e+07 M⁻¹
- Kd [6]: 15.3 nM
- koff [6]: 0.0055 s⁻¹
- kon [6]: 359000 M⁻¹ s⁻¹

B10: humanized 12A11 version 2.1 (antibody, V domains shown)
VH: B6 VH with T75N
VL: B6 VL
notes: Variable regions only; made like version 2; also called h12A11v2.1
- Ka [6]: 1.17e+08 M⁻¹
- Kd [6]: 8.54 nM
- koff [6]: 0.00261 s⁻¹
- kon [6]: 306000 M⁻¹ s⁻¹

The next lines start with the values.

- EC50 [1]: < 1 nM
- EC50 [2]: 0.333 nM
B1: monoclonal antibody 2C1 (antibody, V domains shown)
VH: EVQLQQSGAELVKPGASVKLSCTGSGFNIKVYYVHWLKQLTEQGLEWIGRIDPENGETIYAPKFQDKATLTVDTSSNTAYLQLSSLTSEDTAVYYCVSSGYWGQGTTLTVSS
VL: DIVMTQSAFSNPVTLGTSASISCRSSKSLLHRNGITYLYWYLQKPGQSPQLLIYQMSNLASGVPDRFTSSGSGTDFTLKISRVEAEDVGVYYCAQNLELWTFGGGTKLEIK

- EC50 [1]: < 1 nM
- EC50 [2]: 0.667 nM
- binding result (Monomer): binds
B2: murine 12B4 monoclonal antibody (antibody, V domains shown)
VH: QVTLKESGPGILQPSQTLSLTCSFSGFSLSTNGMGVSWIRQPSGKGLEWLAHIYWDEDKRYNPSLKSRLTISKDTSNNQVFLKITNVDTADTATYYCARRRIIYDVEDYFDYWGQGTTLTVSS
VL: DVLMTQTPLSLPVSLGDQASISCRSSQNIVHSNGNTYLEWYLQKPGQSPKLLIYKVSNRFSGVPDRFSGSGSGTDFTLKISRVEAEDLGVYYCFQGSHVPLTFGAGTKLELK
notes: Mouse hybridoma antibody; Leader left out; also called mAb 12B4

- EC50 [1]: < 1 nM
- EC50 [2]: 0.233 nM
B3: murine 12A11 monoclonal antibody (antibody, mouse IgG1, V domains shown)
VH: QVTLKESGPGILKPSQTLSLTCSFSGFSLSTSGMSVGWIRQPSGKGLEWLAHIWWDDDKYYNPSLKSRLTISKDTSRNQVFLKITSVDTADTATYYCARRTTTADYFAYWGQGTTLTVSS
VL: B2 VL with N28S, V90I, G96S
notes: also called mu12A11; m12A11

- Ka [6]: 1.67e+08 M⁻¹
- Kd [6]: 5.99 nM
- koff [6]: 0.00313 s⁻¹
- kon [6]: 523000 M⁻¹ s⁻¹
B9: humanized 12A11 version 3.1 (antibody, V domains shown)
VH: B6 VH with V50L, T75N
VL: B6 VL
notes: Variable regions only tied to the tested antibody; also called h12A11v3.1; humanized 12A11 v3.1
